Reference: the supplement of paper PMC10567573

B1: BCL2L13 (parent)
chain: MASSSTVPLGFHYETKYVVLSYLG
B2: TRIB1 (parent)
chain: EIGTSDQIVPEYQEDSDISSFFC
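Also: lentivirally expressed fusions sorted by FACS into six bins by GFP to DsRed ratio, PSI derived from sequencing read proportions per bin multiplied by bin number.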

Variants of: B1
Experiment: protein stability index of a GFP-peptide fusion (GPS, HEK-293T) (PSI 1-6); higher = more stable
Conditions: c terminus: a fixed tail appended
Work on MASSSTVPLGFHYETKYTVLSYLG [V18T] yielded a protein stability index of 2.88. MASSSTVPLGFHYETKYGVLSYLG [V18G] showed a protein stability index of 1.53. For MASSSTVPLGFHYETKYMVLSYLG [V18M], the protein stability index was 2.55. Variant MASSSTVPLGFHYETKYLVLSYLG [V18L] has a protein stability index of 1.88. MASSSTVPLGFHYETKYEVLSYLG [V18E] gave a protein stability index of 2.02. For MASSSTVPLGFHYETKYPVLSYLG [V18P], the protein stability index was 1.91. Variant MASSSTVPLGFHYETKYNVLSYLG [V18N] has a protein stability index of 1.56. MASSSTVPLGFHYETKYFVLSYLG [V18F] showed a protein stability index of 3.21. With MASSSTVPLGFHYETKYHVLSYLG [V18H] the protein stability index was 1.88. For MASSSTVPLGFHYETKYAVLSYLG [V18A], the protein stability index was 2.24. MASSSTVPLGFHYETKYIVLSYLG [V18I] gave a protein stability index of 2.81. MASSSTVPLGFHYETKYSVLSYLG [V18S] showed a protein stability index of 1.79. With MASSSTVPLGFHYETKYYVLSYLG [V18Y] the protein stability index was 2.6. MASSSTVPLGFHYETKYDVLSYLG [V18D] gave a protein stability index of 1.89. For MASSSTVPLGFHYETKYKVLSYLG [V18K], the protein stability index was 2.31. For MASSSTVPLGFHYETKDVVLSYLG [Y17D], the protein stability index was 1.73. MASSSTVPLGFHYETKRVVLSYLG [Y17R] gave a protein stability index of 1.66. In the case of MASSSTVPLGFHYETKHVVLSYLG [Y17H], the protein stability index is reported as 1.95. For MASSSTVPLGFHYETKNVVLSYLG [Y17N], the protein stability index was 1.62. In the case of MASSSTVPLGFHYETKPVVLSYLG [Y17P], the protein stability index is reported as 1.95. For MASSSTVPLGFHYETKLVVLSYLG [Y17L], the protein stability index was 2.22. In the case of MASSSTVPLGFHYETKQVVLSYLG [Y17Q], the protein stability index is reported as 1.84. With MASSSTVPLGFHYETKFVVLSYLG [Y17F] the protein stability index was 3.51. With MASSSTVPLGFHYETKKVVLSYLG [Y17K] the protein stability index was 2.1. Variant MASSSTVPLGFHYETKSVVLSYLG [Y17S] has a protein stability index of 1.66. MASSSTVPLGFHYETKGVVLSYLG [Y17G] showed a protein stability index of 2. MASSSTVPLGFHYETKCVVLSYLG [Y17C] showed a protein stability index of 2.48. With MASSSTVPLGFHYETKAVVLSYLG [Y17A] the protein stability index was 2.67. MASSSTVPLGFHYETKEVVLSYLG [Y17E] gave a protein stability index of 1.86. MASSSTVPLGFHYETKTVVLSYLG [Y17T] gave a protein stability index of 1.62. Variant MASSSTVPLGFHYETKMVVLSYLG [Y17M] has a protein stability index of 3.56. MASSSTVPLGFHYETKYVVLSYLR [G24R] showed a protein stability index of 2.06. Work on MASSSTVPLGFHYETKYVVLSYLM [G24M] yielded a protein stability index of 1.84. MASSSTVPLGFHYETKYVVLSYLY [G24Y] gave a protein stability index of 1.89. With MASSSTVPLGFHYETKYVVLSYLI [G24I] the protein stability index was 1.75. MASSSTVPLGFHYETKYVVLSYLN [G24N] gave a protein stability index of 2.1. MASSSTVPLGFHYETKYVVLSYLS [G24S] showed a protein stability index of 1.97. Variant MASSSTVPLGFHYETKYVVLSYLC [G24C] has a protein stability index of 2.21. For MASSSTVPLGFHYETKYVVLSYLD [G24D], the protein stability index was 2.38. Work on MASSSTVPLGFHYETKYVVLSYLL [G24L] yielded a protein stability index of 2.98. MASSSTVPLGFHYETKYVVLSYLP [G24P] showed a protein stability index of 2.71. For MASSSTVPLGFHYETKYVVLSYLW [G24W], the protein stability index was 3.89. With MASSSTVPLGFHYETKYVVLSYLV [G24V] the protein stability index was 3.35. In the case of MASSSTVPLGFHYETKYVVLSYLH [G24H], the protein stability index is reported as 2.42. For MASSSTVPLGFHYETKYVVLSYLA [G24A], the protein stability index was 2.8. With MASSSTVPLGFHYETKYVVLSYLF [G24F] the protein stability index was 3.97. MASSSTVPLGFHYETKYVVLSYLK [G24K] showed a protein stability index of 1.45. Variant MASSSTVPLGFHYETKYVVLSYLQ [G24Q] has a protein stability index of 2.62. In the case of MASSSTVPLGFHYETKYVVLSYLT [G24T], the protein stability index is reported as 2.13. MASSSTVPLGFHYETKYVVLSYLE [G24E] showed a protein stability index of 2.05. For MASSSTVPLGFHYETKYVVLSYSG [L23S], the protein stability index was 2.34. MASSSTVPLGFHYETKYVVLSYFG [L23F] showed a protein stability index of 2.12. With MASSSTVPLGFHYETKYVVLSYHG [L23H] the protein stability index was 2.59. For MASSSTVPLGFHYETKYVVLSYGG [L23G], the protein stability index was 1.71. For MASSSTVPLGFHYETKYVVLSYYG [L23Y], the protein stability index was 2.46. Variant MASSSTVPLGFHYETKYVVLSYNG [L23N] has a protein stability index of 2.18. MASSSTVPLGFHYETKYVVLSYVG [L23V] showed a protein stability index of 1.93. In the case of MASSSTVPLGFHYETKYVVLSYMG [L23M], the protein stability index is reported as 3.69. MASSSTVPLGFHYETKYVVLSYKG [L23K] showed a protein stability index of 2.3. With MASSSTVPLGFHYETKYVVLSYIG [L23I] the protein stability index was 2.11. For MASSSTVPLGFHYETKYVVLSYWG [L23W], the protein stability index was 2.76. MASSSTVPLGFHYETKYVVLSYRG [L23R] showed a protein stability index of 2.21. In the case of MASSSTVPLGFHYETKYVVLSYCG [L23C], the protein stability index is reported as 2.09. In the case of MASSSTVPLGFHYETKYVVLSYTG [L23T], the protein stability index is reported as 1.44. Work on MASSSTVPLGFHYETKYVVLSYDG [L23D] yielded a protein stability index of 1.63. In the case of MASSSTVPLGFHYETKYVVLSYPG [L23P], the protein stability index is reported as 1.71. Work on MASSSTVPLGFHYETKYVVLSYEG [L23E] yielded a protein stability index of 1.65. With MASSSTVPLGFHYETKYVVLSYQG [L23Q] the protein stability index was 1.48. Work on MASSSTVPLGFHYETKYVVLSMLG [Y22M] yielded a protein stability index of 2.7. Variant MASSSTVPLGFHYETKYVVLSELG [Y22E] has a protein stability index of 1.85. MASSSTVPLGFHYETKYVVLSKLG [Y22K] gave a protein stability index of 2.37. With MASSSTVPLGFHYETKYVVLSTLG [Y22T] the protein stability index was 2.81. MASSSTVPLGFHYETKYVVLSVLG [Y22V] showed a protein stability index of 1.89. Variant MASSSTVPLGFHYETKYVVLSALG [Y22A] has a protein stability index of 1.89. Variant MASSSTVPLGFHYETKYVVLSPLG [Y22P] has a protein stability index of 1.47. Variant MASSSTVPLGFHYETKYVVLSILG [Y22I] has a protein stability index of 2.02. With MASSSTVPLGFHYETKYVVLSCLG [Y22C] the protein stability index was 2.8. MASSSTVPLGFHYETKYVVLSHLG [Y22H] gave a protein stability index of 3. Variant MASSSTVPLGFHYETKYVVLSGLG [Y22G] has a protein stability index of 2.51. MASSSTVPLGFHYETKYVVLSLLG [Y22L] showed a protein stability index of 3.28. Variant MASSSTVPLGFHYETKYVVLSWLG [Y22W] has a protein stability index of 2.89. In the case of MASSSTVPLGFHYETKYVVLSFLG [Y22F], the protein stability index is reported as 2.49. For MASSSTVPLGFHYETKYVVLSRLG [Y22R], the protein stability index was 1.69. In the case of MASSSTVPLGFHYETKYVVLSDLG [Y22D], the protein stability index is reported as 2.4. In the case of MASSSTVPLGFHYETKYVVLSSLG [Y22S], the protein stability index is reported as 3.81. MASSSTVPLGFHYETKYVVLSNLG [Y22N] showed a protein stability index of 1.63. For MASSSTVPLGFHYETKYVVLSQLG [Y22Q], the protein stability index was 3.03.

Variants of: B2
Experiment: as above
Conditions: c terminus: native
Work on EIDTSDQIVPEYQEDSDISSFFC [G3D] yielded a protein stability index of 2.55. With EINTSDQIVPEYQEDSDISSFFC [G3N] the protein stability index was 2.81. With EIGTSDQIVPEYQLDSDISSFFC [E14L] the protein stability index was 1.99. Work on EIGTSDQIVPEYQEDSDCSSFFC [I18C] yielded a protein stability index of 3.16. Variant EIGTSDQIVPENQEDSDISSFFC [Y12N] has a protein stability index of 5.03. Variant EIGTSDQIVPEYQEDSDISSFMC [F22M] has a protein stability index of 3.16. Variant EIGTSDQIVPEYQETSDISSFFC [D15T] has a protein stability index of 3.4.
